For 1 substance, Kd and Ratio results are on record in patent US20250163166A1.

Assay [1] concerns the target human FCγRIIIa receptor (human) (UniProt P08637). The assay is described as follows: BLI (Octet 96), antibody loaded on sensor, FCγRIIIa 200 nM and 2-fold dilutions in solution.
The target is the same in assay [2]. The assay is described as follows: BLI; Ratio of the hIgG (hIgG1) control against itself.

Chain of human FCγRIIIa receptor (human) (P08637 17-208 limits assumed): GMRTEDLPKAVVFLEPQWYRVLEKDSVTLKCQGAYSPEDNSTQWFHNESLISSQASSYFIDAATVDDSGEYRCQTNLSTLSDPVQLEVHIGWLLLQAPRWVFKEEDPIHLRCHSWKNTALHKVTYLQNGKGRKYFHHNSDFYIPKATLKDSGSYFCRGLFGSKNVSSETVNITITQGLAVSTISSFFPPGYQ

As for control sample hIgG1 (antibody), the Kd in assay [1] was found to be 88.6 nM. Further, in assay [2], the Ratio is 1.
